# How the values were obtained:
# [1] = biological target: T1, recombinant mouse VISTA (His-tagged) (mouse, UniProt Q9D659 33-191); test: ELISA, plate coated with mouse VISTA
# T1 construct: also called murine VISTA; mVISTA
# T1 sequence (looked up): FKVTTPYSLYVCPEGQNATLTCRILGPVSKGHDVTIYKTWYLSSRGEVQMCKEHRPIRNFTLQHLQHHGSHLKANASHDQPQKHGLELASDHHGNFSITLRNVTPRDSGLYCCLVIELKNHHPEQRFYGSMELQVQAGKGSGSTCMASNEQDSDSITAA
# [2] = biological target: T1, recombinant mouse VISTA (His-tagged); test: ELISA, plate coated with mouse VISTA; unit nM from the legend paragraph 697
# [3] = biological target: T2, recombinant rat VISTA (His-tagged) (rat, UniProt A0ABK0L5H3 33-192); test: ELISA, plate coated with rat VISTA
# T2 sequence: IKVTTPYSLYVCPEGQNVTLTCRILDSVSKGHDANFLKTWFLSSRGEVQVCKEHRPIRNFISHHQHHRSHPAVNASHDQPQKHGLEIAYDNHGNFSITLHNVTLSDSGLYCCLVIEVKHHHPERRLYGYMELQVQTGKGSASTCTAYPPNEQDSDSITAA
# [4] = biological target: T1, recombinant mouse VISTA (His-tagged); test: BLI (Octet QK384): His-tagged murine VISTA on anti-Penta-HIS tips, V4 666.5 to 41.7 nM as analyte, global fit
# Procedure: All measurements were performed at 25° C. with agitation at 1000 rpm. Kinetic measurements for antigen binding were performed by loading anti-VISTA antibody at different concentrations (indicated in the Figures) for 120 s, followed by a 120 s dissociation time by transferring the biosensors into assay buffer containing wells. Sensograms were referenced for buffer effects and then fitted using the Octet QK384 user software (Pall ForteBio, USA).
# Kinetic responses were subjected to a global fitting using a one site binding model to obtain values for association (kon), dissociation (koff) rate constants and the equilibrium dissociation constant (KD). Only curves that could be reliably fitted with the software (R²>0.90) were included in the analysis.
# [5] = biological target: T3, recombinant human VISTA (His-tagged) (human, UniProt Q9H7M9 33-194); test: ELISA, plate coated with human VISTA
# T3 construct: bought soluble protein (Sino Biological); also called hVISTA; human VISTA polypeptide
# [6] = biological target: T4, recombinant cynomolgus macaque VISTA (His-tagged) (cynomolgus macaque, UniProt A0A7N9IB00 33-194); test: ELISA, plate coated with cyno VISTA
# T4 construct: also called cyno VISTA; cynomolgus monkey VISTA
# [7] = biological target: T3, recombinant human VISTA (His-tagged); test: ELISA, plate coated with human VISTA; unit nM from the legend paragraph 697
# [8] = biological target: T1, recombinant mouse VISTA (His-tagged); test: ELISA, plate coated with mouse VISTA; unit nM from the legend paragraph 698
# [9] = biological target: T1, recombinant mouse VISTA (His-tagged); test: BLI (Octet), 1:1 global fit, mouse VISTA captured
# Procedure: All measurements were performed at 25° C. with agitation at 1000 rpm. […] Sensograms were referenced for buffer effects and then fitted using the Octet QK384 user software (Pall ForteBio, USA).
# [10] = biological target: T1, recombinant mouse VISTA (His-tagged); test: BLI (Octet), 1:1 global fit, His-tagged mouse VISTA captured
# [11] = biological target: T3, recombinant human VISTA (His-tagged); test: BLI (Octet), 1:1 global fit, human VISTA captured
# Procedure: (§1) Finally, the biosensors were incubated for 120 sec in PBS pH 7.2 to obtain the dissociation curves. Kinetic and affinity constants were calculated by global fitting of the association and dissociation data to a 1:1 binding model.
# [12] = biological target: T1, recombinant mouse VISTA (His-tagged); test: ELISA, plate coated with mouse VISTA; unit nM from the legend paragraph 699
# [13] = biological target: T3, recombinant human VISTA (His-tagged); test: ELISA, plate coated with human VISTA; unit nM from the legend paragraph 699
# [14] = biological target: T1, recombinant mouse VISTA (His-tagged); test: BLI (Octet), 1:1 global fit, His-tagged mouse VISTA captured; remark: listed apart in the source
# [15] = biological target: T3, recombinant human VISTA (His-tagged); test: BLI (Octet), 1:1 global fit, His-tagged human VISTA captured
# human PD-L1 = biological target: T5, human PD-L1 (human, UniProt Q9NZQ7 19-239); test: BLI (Octet), His-tagged human PD-L1 on anti-Penta-HIS biosensor, antibody 500-15.6 nM
# T5 construct: captured through a His tag in the BLI experiments; also called hPD-L1; B7H1/PDL-1
# T5 sequence (Q9NZQ7 19-239 limits assumed): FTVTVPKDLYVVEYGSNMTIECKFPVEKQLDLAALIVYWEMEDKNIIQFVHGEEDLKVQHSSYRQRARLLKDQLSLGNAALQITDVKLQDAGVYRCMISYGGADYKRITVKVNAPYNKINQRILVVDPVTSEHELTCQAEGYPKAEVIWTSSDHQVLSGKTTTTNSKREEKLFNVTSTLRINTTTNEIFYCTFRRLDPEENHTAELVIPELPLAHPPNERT
# Procedure: as §1
# [16] = biological target: T3, recombinant human VISTA (His-tagged); test: ELISA, plate coated with human VISTA; unit nM from the legend paragraph 698
# [17] = biological target: T3, recombinant human VISTA (His-tagged); test: antigen-binding ELISA; HMBD-002 10 mg/mL in F8, day 0
# [18] = biological target: T3, recombinant human VISTA (His-tagged); test: antigen-binding ELISA; HMBD-002 10 mg/mL in F10, day 0
# [19] = biological target: T3, recombinant human VISTA (His-tagged); test: antigen-binding ELISA; HMBD-002 in F7, day 30 at 40°C
# [20] = biological target: T3, recombinant human VISTA (His-tagged); test: antigen-binding ELISA; HMBD-002 in F2, day 30 at 40°C
# [21] = biological target: T6, cynomolgus macaque VISTA expressed on cells (cynomolgus macaque, UniProt A0A7N9IB00 33-311); test: flow cytometry, endogenous VISTA on CD11b+ myeloid cells of NHP PBMCs
# T6 construct: whole, on cells; also called NHP VISTA on HEK293T cells; VISTA on NHP CD11b+ myeloid cells
# Procedure: To identify myeloid cells, PBMCs were further incubated with CD45 FITC and CD11b PE. Cells were washed again and resuspended in 200 μL of FACS flow buffer (PBS with 5 mM EDTA) for flow cytometric analysis using MACSQuant 10 (Miltenyi). After acquisition, all raw data were analyzed using Flowlogic software. Cells were gated using forward and side scatter, and the percentage of positive cells was determined.
Binder,EC50 [1] [nM],EC50 [2] [nM],EC50 [3] [nM],EC50 [5] [nM],EC50 [6] [nM],EC50 [7] [nM],EC50 [8] [nM],Kd [9] [nM],koff [9] [s⁻¹],kon [9] [M⁻¹ s⁻¹],Kd [10] [nM],koff [10] [s⁻¹],kon [10] [M⁻¹ s⁻¹],Kd [11] [nM],koff [11] [s⁻¹],kon [11] [M⁻¹ s⁻¹],EC50 [12] [nM],EC50 [13] [nM],Kd [14] [nM],koff [14] [s⁻¹],also measured
"anti-VISTA clone 4M2-C12 IgG1 (antibody, mouse variable regions on human IgG1/kappa constant regions; also called V4; V4pr) heavy: not shown light: DIVITQTPAILSTSPGEKVTMTCRASSSVGYIHWYQQKPGSSPKPWIYATSNLASGVPARFSGSGSGTSNSLTITRVEAEDAATYYCQQWSSYPPITFGGGTKLEVKRTVAAPSVFIFPPSDEQLKSGTASVVCLLNNFYPREAKVQWKVDNALQSGNSQESVTEQDSKDSTYSLSSTLTLSKADYEKHKVYACEVTHQGLSSPVTKSFNRGEC",0.387,0.43,1.25,0.0319,0.0472,0.036,–,–,–,–,–,–,–,–,–,–,–,–,–,–,koff [4]: 0.00445 s⁻¹; kon [4]: 39500 M⁻¹ s⁻¹
"anti-VISTA clone V4-C24 IgG1 (antibody, V domains shown) VH: QVQLQESGPGLVKPSDTLSLTCTVSGYSITSDYTWNWIRQTPGKGLEWIGHITYSGSVSYNPSLRSRVTISRDTSKNQFSLKLSSVTAADTATYSCARALYYPWYFDVWGTGTTVTVSS VL: EIVLTQSPATLSLSPGERATLSCRASSSVGYIHWYQQKPGQAPRPLIYTTSYRATGIPARFSGSGSGTDNTLTISSLEPEDSAVYYCQQWSSYPPITFGGGTKLEVKR",0.0304,0.017,0.201,0.0268,0.0385,0.01,0.042,0.202,7.6e-05,378000,< 0.001,< 1e-07,401000,< 0.001,< 1e-07,373000,0.116,0.073,< 0.001,< 1e-07,kon [14]: 462000 M⁻¹ s⁻¹; Kd [15]: < 0.001 nM; koff [15]: < 1e-07 s⁻¹; kon [15]: 384000 M⁻¹ s⁻¹; binding result (human PD-L1): no binding (tested: 500 nM); EC50 [16]: 0.032 nM
anti-VISTA clone V4-C26 IgG1 (antibody) heavy: not shown light: EIVLTQSPATLSLSPGERATLSCRASSSVGYIHWYQQKPGQAPRPIIYTTSNRATGIPARFSGSGSGTDNTLTISSLEPEDSAVYYCQQWSSYPPITFGGGTKLEVKRTVAAPSVFIFPPSDEQLKSGTASVVCLLNNFYPREAKVQWKVDNALQSGNSQESVTEQDSKDSTYSLSSTLTLSKADYEKHKVYACEVTHQGLSSPVTKSFNRGEC,0.0325,0.0089,0.16,0.0241,0.0356,0.0034,0.058,0.53,0.0002,382000,< 0.001,< 1e-07,403000,0.241,9.8e-05,407000,0.086,0.064,0.183,7.6e-05,kon [14]: 413000 M⁻¹ s⁻¹; Kd [15]: < 0.001 nM; koff [15]: < 1e-07 s⁻¹; kon [15]: 404000 M⁻¹ s⁻¹; binding result (human PD-L1): no binding (tested: 500 nM); EC50 [16]: 0.038 nM
"anti-VISTA clone V4-C27 IgG1 (antibody, V domains shown) VH: QVQLQESGPGLVKPSDTLSLTCTVSGYSITSDYTWNWIRQTPGKGLEWIGHITYSGSVSYNPSLRSRVTISRDTSKNQFSLKLSSVTAADTATYSCARALYYPWYFDVWGTGTTVTVSS VL: EIVLTQSPATLSLSPGERATLSCRASSSVGYIHWYQQKPGQAPRPLIYATYNRATGIPARFSGSGSGTDNTLTISSLEPEDSAVYYCQQWSSYPPITFGGGTKLEVKR",0.0374,0.0023,0.196,0.0295,0.0324,< 0.0007,0.047,0.395,0.00016,392000,< 0.001,< 1e-07,426000,0.119,6.1e-05,511000,0.073,0.047,0.137,5.5e-05,kon [14]: 398000 M⁻¹ s⁻¹; Kd [15]: < 0.001 nM; koff [15]: < 1e-07 s⁻¹; kon [15]: 465000 M⁻¹ s⁻¹; binding result (human PD-L1): no binding (tested: 500 nM); EC50 [16]: 0.037 nM
"V4-C26 hIgG4 (antibody, human IgG4 (S228P)/kappa format; also called HMBD-002; HMBD-002-V4C26) heavy: not shown light: EIVLTQSPATLSLSPGERATLSCRASSSVGYIHWYQQKPGQAPRPIIYTTSNRATGIPARFSGSGSGTDNTLTISSLEPEDSAVYYCQQWSSYPPITFGGGTKLEVKRTVAAPSVFIFPPSDEQLKSGTASVVCLLNNFYPREAKVQWKVDNALQSGNSQESVTEQDSKDSTYSLSSTLTLSKADYEKHKVYACEVTHQGLSSPVTKSFNRGEC",–,–,–,–,–,–,–,–,–,–,–,–,–,–,–,–,–,–,–,–,EC50 [17]: 0.0395 nM; EC50 [18]: 0.0321 nM; EC50 [19]: 0.0217 nM; EC50 [20]: 0.0202 nM; EC50 [21]: 67.6 nM
